Entries after “also recorded” stand apart in the source; their conditions may differ.
B1: IL-10: Interleukin 10, immunoregulatory cytokine (protein, UniProt P22301 19-178, looked up)
Interleukin-10: SPGQGTQSENSCTHFPGNLPNMLRDLRDAFSRVKTFFQMKDQLDNLLLKESLLEDFKGYLGCQALSEMIQFYLEEVMPQAENQDPDIKAHVNSLGENLKTLRLRLRRCHRFLPCENKSKAVEQVKNAFNKLQEKGIYKAMSEFDIFINYIEAYMTMKIRN

System: ILT3 and ILT4 on monocytes and DCs
Assay: Flow cytometry of ILT3, ILT4 and costimulatory molecules on APCs
Type: cell-based, human
Settings: for ILT3 and ILT4 expression on APC (monocytes and dendritic cells): treatment of APC
Method: To study the expression of ILT3 or ILT4 and costimulatory molecules on normal APCs from peripheral blood or spleen cell suspensions, APCs were incubated with TS cells for 18 h with or without CD40L-transfected D1.1 cells (see Results). The cells were then collected, washed and saturating amounts of mAbs to ILT3 or ILT4 were added (21, 22). After 30 min on ice, cells were washed twice, stained with PE-goat-anti-mouse or PE-goat-anti-rat (Caltech, Burlingame, Calif.), then washed twice again, incubated with mouse or rat IgG (as a blocking antibody, Vector Labs, Burlingame, Calif.), washed twice, then stained with mAbs to FITC-CD14 or cychrome-CD11c, FITC-HLA-DR and PerCP-CD3 (Pharmingen, San Diego, Calif.). In other samples, mAbs to PE-CD80 and PE-CD86 were added along with markers for monocytes and DCs. CD3^+ T cells were gated-out and CD14^+ monocytes or CD14^− CD11c^+HLA-DR^+ immature DCs were analyzed with CellQuest software on a G4 Apple Macintosh Computer. Annexin V and PI staining of target APCs was done as described (12). Five parameter analyses (forward scatter, side scatter and three fluorescence channels) were used for list mode data analysis. The FL3 channel was used as a fluorescence trigger and FL1 and FL2 as analysis parameters.

Molecule | ILT3 and ILT4 expression on APC (monocytes and dendritic cells) | CD86 expression on human monocytes and DCs (within 20 h of incubation) | expression of ILT3 and ILT4 on the membranes of human monocytes and DCs (within 20 h of incubation)
TNF-alpha | increase the expression | – | –
B1 | induces upregulation; also recorded: increase the expression | down-regulated | up-regulated

— patent US20090280109A1, “ILT3 and ILT4-related compositions and methods” (The Trustees of Columbia University in the City of New York, priority 2001, published 2009)
